Results taken from doi:10.1101/2025.03.06.641855.

Columns and labels:
[1] = molecular target: OppA-ev2 (evolved OppA variant with seven mutations) (E. coli (K12)) (UniProt P23843); assay: MST
[2] = molecular target: wt-OppA, periplasmic binding protein of the oligopeptide permease (Opp) transporter (E. coli (K12)) (UniProt P23843); assay: MST

Kd [1] [µM] | Kd [2] [µM] | Substance
300 | 300 | SisoK, isopeptide-linked dipeptide
37 | 50 | G-SisoK, isopeptide-linked tripeptide
275 | 71 | linear GSK tripeptide
